Assay [1] addresses T1, NF1(GRD), neurofibromin GAP-related domain, wild type (ITC), P21359-2.
T1 chain: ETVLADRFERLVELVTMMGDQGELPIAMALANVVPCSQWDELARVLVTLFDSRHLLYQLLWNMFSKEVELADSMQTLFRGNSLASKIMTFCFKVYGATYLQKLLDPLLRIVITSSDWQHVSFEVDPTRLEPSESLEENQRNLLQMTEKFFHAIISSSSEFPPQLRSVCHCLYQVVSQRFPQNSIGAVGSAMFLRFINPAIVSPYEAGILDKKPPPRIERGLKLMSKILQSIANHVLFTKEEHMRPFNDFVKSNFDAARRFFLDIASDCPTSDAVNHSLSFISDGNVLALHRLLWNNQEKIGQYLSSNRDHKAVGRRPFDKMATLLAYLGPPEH
Nature of the assay: ITC. The settings on record: chain shown with the change.

Assay [2] deals with NF1(GRD), neurofibromin GAP-related domain, wild type (ITC) (human) (UniProt P21359). Nature of the assay: ITC; MicroCal PEAQ-ITC, 25°C, 19 injections of 2.2 μL; 20 mM HEPES (pH 7.3), 150 mM NaCl, 5 mM MgCl2, 1 mM TCEP; one set of sites model; protein in the cell not given.
The next assay concerns the target NF1(GRD) R1250A (human) (UniProt P21359). The description is as above.
Another assay has as its target NF1(GRD) D1217A (human) (UniProt P21359). The description is as above.
Assay [3] has as its target T2, SPRED1(EVH1), SPRED1(13–125), wild type (ITC), Q7Z699.
T2 chain: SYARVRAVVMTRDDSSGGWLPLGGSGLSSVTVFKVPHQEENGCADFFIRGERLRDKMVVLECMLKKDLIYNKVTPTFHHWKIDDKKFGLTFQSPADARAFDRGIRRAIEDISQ
As to the kind of experiment: ITC. The settings on record: chain shown with the change.

Residue numbers refer to the chain shown, from its start. Numbers in names are those of the source.

B1: SPRED1(EVH1), SPRED1(13–125), wild type (ITC), Q7Z699 R24Q (protein)
chain: T2 chain with R12Q
By Kd is commonly meant a measure of binding affinity in units of concentration. A high value points to weaker binding. In assay [1], B1 gave a Kd of 4 µM.

B2: SPRED1(EVH1), SPRED1(13–125), wild type (ITC) (domain or fragment)
chain: T2 chain
Molecule B2 gave a Kd in assay [2] of 0.224 µM. The fold reduced binding against wild-type NF1(GRD) with NF1(GRD) R1250A (human) is 5 fold. Further, the fold weaker affinity than wild-type NF1(GRD) with NF1(GRD) D1217A (human) was above 50 fold.

B3: SPRED1(13–125) G30R (domain or fragment)
chain: T2 chain with G18R
As to B3, in assay [2], the fold weaker binding than wild-type SPRED1 (printed as decrease in KD) was above 100 fold.

B4: SPRED1(13–125) R24Q (domain or fragment)
chain: T2 chain with R12Q
The molecule B4 gave a fold weaker binding than wild-type SPRED1 in assay [2] of 20 fold.

B5: SPRED1(EVH1), SPRED1(13–125), wild type (ITC), Q7Z699 G30R (protein)
chain: T2 chain with G18R
The molecule B5 showed a Kd in assay [1] of 33.7 µM.

B6: SPRED1(13–125) S105D, purified phosphomimetic (domain or fragment)
chain: T2 chain with S93D
As for B6, in assay [2], the fold weaker affinity than wild-type SPRED1 worked out at 10 fold.

B7: NF1(GRD), neurofibromin GAP-related domain, wild type (ITC), P21359-2 D1217A (protein)
chain: T1 chain with D20A
In the case of B7, in assay [3], the Kd was 14 µM.

B8: NF1(GRD), neurofibromin GAP-related domain, wild type (ITC), P21359-2 R1250A (protein)
chain: T1 chain with R53A
B8 had a Kd in assay [3] of 1.08 µM.

The record behind these values is PMC7437355.
